The values that follow come from patent publication US12365732 (23ANDME, dated 2025).

In test [1] the target is T1, hu-CD96 (soluble, isoform 2 extracellular domain) (human, UniProt P40200 22-516, biotinylated in Octet and blocking ELISA).
T1 construct: the assays name only hu-CD96; also called hCD96; biotinylated hu-CD96
T1 sequence: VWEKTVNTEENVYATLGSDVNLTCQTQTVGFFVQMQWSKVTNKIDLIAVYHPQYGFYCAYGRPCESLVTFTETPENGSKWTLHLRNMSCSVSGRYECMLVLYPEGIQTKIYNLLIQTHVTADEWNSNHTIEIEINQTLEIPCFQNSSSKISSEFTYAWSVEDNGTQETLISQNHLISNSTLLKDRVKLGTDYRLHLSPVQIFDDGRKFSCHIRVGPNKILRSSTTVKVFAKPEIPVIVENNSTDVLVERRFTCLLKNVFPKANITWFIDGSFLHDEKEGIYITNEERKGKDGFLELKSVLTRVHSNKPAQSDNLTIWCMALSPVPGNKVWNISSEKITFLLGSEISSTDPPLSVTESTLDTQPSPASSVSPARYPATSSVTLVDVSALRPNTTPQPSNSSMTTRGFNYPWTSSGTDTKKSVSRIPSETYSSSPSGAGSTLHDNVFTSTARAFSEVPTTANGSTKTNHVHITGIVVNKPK
As to the kind of experiment: BLI (Octet), biotin-CD96 on SA, Fab analyte. The procedure:
The binding affinity of the generated Fab variants of mAb1.v7 for hu-CD96 and cy-CD96 was determined by OCTET (Pall ForteBio) Bio-Layer Interferometry (BLI) binding analysis. The biotinylated hu-CD96 or biotinylated cy-CD96 was diluted to a final concentration 10 µg/mL in experimental buffer (PBS buffer with 0.01% Tween-20) and immobilized on the Streptavidin Capture (SA) biosensors (Pall ForteBio). Three-fold serial dilutions of the mAb1.v7 Fab variants starting at 1 µM as analytes were diluted in the experimental buffer (PBS buffer with 0.01% Tween-20). The biosensors were equilibrated in experimental buffer at 30° C. for ten minutes prior to starting the experiment. The kinetics experiment was performed with the following steps, where the step name, solution and time are listed: Baseline (buffer—60 seconds), Loading (biotinylated antigen—200 seconds), Baseline 2 (buffer—minimum 120 seconds), Association (analyte—200-300 seconds) and Dissociation (buffer—1000 seconds). The resulting BLI signal from analyte association and dissociation from the […] was analyzed using the Octet Data Analysis software (Pall ForteBio). First a reference subtraction was performed on all recorded traces using the reference well (biosensor that underwent same steps as experimental wells but no analyte for the Association step) and then all the traces were aligned to the beginning of the Association step. The entirety of the Association and Dissociation steps were used in a Global fit (minimum of four analyte concentration traces) in a 1:1 binding model to calculate the K_D values for the 16 selected individual mAb1.v7 Fab variants as summarized in Table 9 (below).

Test [2] has as its target T1, hu-CD96 (soluble, isoform 2 …). The test is described as follows: phage competition ELISA, soluble CD96 vs coated hu-CD96. The procedure:
192 colonies from most stringent selections (biotinylated 0.1 nM of hu-CD96 or cy-CD96 with 1000× non-biotinylated human or cy-CD96) were grown in 400 µL 2YT with 4 µL helper phage M13KO7 overnight at 37° C. with shaking. After spinning down the pellet, the phage supernatant was diluted 1:1 with 2 nM hu-CD96, 20 nM cy-CD96 and ELISA buffer (0.5% BSA and 0.05% TWEEN®20 in PBS) in total […] and incubated for two hours at room temperature with agitation. The […] of mixture was transferred to hu-CD96 coated plate for 15 min to capture unbound phage. The plate was washed with wash buffer (0.05% TWEEN®20 in PBS), and HRP-conjugated anti-M13 antibody (Sino biological, Cat #11973-MM05-H-50) was added in ELISA buffer for 30 min. […] Enzymatic color development was stopped using TMB stop solution (VWR, Cat #95059-200). Plates were analyzed with a SpectraMax i3X plate reader (Molecular Devices). The % inhibition was calculated by the $OD450$ of wells with hu-CD96/cy-CD96 competitor divided by $OD450$ of wells with buffer alone. The lower % inhibition indicated higher phage $IC50$ against hu-CD96 or cy-CD96.
Selected top inhibition % phage variants from single spot competition were purified from culture supernatants. The optimal phage concentration was incubated with serially-diluted hu-CD96 or cy-CD96 in ELISA buffer in NUNC F plate for two hours. The […] of the mixture was transferred to hu-CD96 coated wells for 15 min to capture unbound phage. The plate was washed with wash buffer (0.05% TWEEN®20 in PBS), and HRP-conjugated anti-M13 antibody (Sino biological, Cat #11973-MM05-H-50) was added in ELISA buffer for 30 min. The plates were washed and developed as described above. The absorbance at 450 nm was plotted as a function of antigen concentration in solution to determine phage $IC50$.
A general note: In an ELISA, binding on a coated surface is turned into a signal by an enzyme label.

Test [3] has the same target. The test is described as follows: ELISA, blocks biotin-CD96 binding to coated hu-CD155-mFc. The procedure:
The selected 5 affinity matured Fab variants of mAb1.v7 Fab were assayed for blocking of human CD155 (hu-CD155) receptor by ELISA as follows. Briefly, 96-well MAXISORP® flat bottom plates (Thermofisher, Cat #439454) were coated overnight at 4° C. with 2 µg/mL goat anti-mouse Fc (Thermofisher, Cat #31168) in PBS. After removing the coating solution, unspecific binding was blocked with PBS containing 1% bovine serum albumin (BSA) and incubation at room temperature for one hour. Plates were then washed five times in PBS with 0.05% TWEEN®-20 (wash buffer) and added […] hu-CD155-mFc in PBS for 1 hour in room temperature. During blocking period, 50 µL/well of 4 nM biotinylated hu-CD96 or 40 nM biotinylated cy-CD96 with serial dilution of the Fab variants 50 µL/well (starting at 2 µM, 1:3 dilution) for two hours at room temperature with PBS containing 0.5% BSA and 0.05% Tween 20 (ELISA buffer) in NUNC F plate (Thermofisher, Cat #269620). Then transferred the antigen-antibody mix solution 80 µL/well into hu-CD155-mFc coated wells at room temperature for 15 min. Plates were then washed with wash buffer to which was added 50 µL/well Streptavidin poly-HRP (Thermofisher, Cat #21140) diluted 1:5000 in ELISA buffer at room temperature for one hour with agitation. […] Enzymatic color development was stopped with 50 µL/well of TMB stop solution (VWR, Cat #95059-200). Plates were analyzed with a SpectraMax i3X plate reader (Molecular Devices) at 450 nm. […] The blocking $IC50$ values for the mAbv1.7 and the 5 selected affinity matured Fab variants (mAb1.v7.2, mAb1.v7.9, mAb1.v7.16, mAb1.v7.48, mAb1.v7.70) are summarized in Table 10 (above).

Where a chain is given by its changes, count along the chain named. Numbers in names are those of the source.

B1: mAb1.v7 Fab (Fab, V domains shown)
VH: EVQLVQSGAEVKKPGASVKVSCKASGFTFTNNWMHWVRQAPGQGLEWIGMIHPNSGITNINEKFKNRVTMTTDTSTSTAYMELRSLRSEDTAVYYCRSDGTYEGYFDYWGQGTLVTVSS
VL: DIQLTQSPSSLSASVGDRVTITCKASQNVGTAIVWYQQKPGKAPKVLIYSASTRYTGVPSRFSGSGSGTDFTLTISSLQPEDFATYYCQQYSSSPLTFGQGTKVEIK
As to B1, the “apparent Kd (pooled screen)” value in test [1] was determined as 76 nM. For the same molecule, the “apparent IC50 (pooled screen)” value turned out to be 0.5 nM in test [2] and 0.74 nM in test [3].

B2: mAb1.v7.9 Fab (Fab, V domains shown)
VH: B1 VH with M34R, P53M, T101V
VL: B1 VL
notes: also called M34R/P52aM/T97V
What is called Kd is the equilibrium constant for the complex coming apart. A high value points to weaker binding. A word on the IC50: it is the concentration needed to halve the response being measured. A low value points to higher potency. B2 showed a Kd in test [1] of approximately 0.1 nM. Also, the IC50 in test [2] stood at 0.11 nM; in test [3] it was 0.42 nM.

B3: mAb1.v7.16 Fab (Fab, V domains shown)
VH: B1 VH with M34R, T101V
VL: B1 VL
notes: also called M34R/T97V
Consider B3, for which, in test [1], the Kd was found to be 1.4 nM. Besides, the IC50 in test [2] was 0.1 nM; in test [3] it was 0.8 nM.

B4: mAb1.v7.70 Fab (Fab, V domains shown)
VH: B1 VH with N32R, P53A, T101V
VL: B1 VL
notes: also called N32R/P52aA/T97V
Regarding B4, in test [1], the Kd was approximately 0.1 nM. The IC50 in test [2] was 0.14 nM; in test [3], 0.8 nM.

B5: mAb1.v7.48 Fab (Fab, V domains shown)
VH: B1 VH with N32R, P53H, T101V
VL: B1 VL
notes: also called N32R/P52aH/T97V
Turning to B5, the Kd in test [1] was approximately 0.1 nM. Also, the IC50 in test [2] was 0.1 nM; in test [3], 0.42 nM.

B6: mAb1.v7.2 Fab (Fab, V domains shown)
VH: B1 VH with M34R, P53F, T101V
VL: B1 VL
notes: also called M34R/P52aF/T97V
For B6, binding in test [1] was put at a Kd of 3.75 nM. Besides, the IC50 in test [2] turned out to be 0.08 nM; in test [3], 0.7 nM.
